Assays:
Test in all cases: cell-based or functional assay
[1] = biological target: CDK9/cyclin T1(h) (human) (UniProt P50750)
[2] = biological target: Rsk4(h) (human) (UniProt Q9UK32)
[3] = biological target: T1, BrSK2(h) (human) (UniProt Q8IWQ3)
T1 sequence (looked up): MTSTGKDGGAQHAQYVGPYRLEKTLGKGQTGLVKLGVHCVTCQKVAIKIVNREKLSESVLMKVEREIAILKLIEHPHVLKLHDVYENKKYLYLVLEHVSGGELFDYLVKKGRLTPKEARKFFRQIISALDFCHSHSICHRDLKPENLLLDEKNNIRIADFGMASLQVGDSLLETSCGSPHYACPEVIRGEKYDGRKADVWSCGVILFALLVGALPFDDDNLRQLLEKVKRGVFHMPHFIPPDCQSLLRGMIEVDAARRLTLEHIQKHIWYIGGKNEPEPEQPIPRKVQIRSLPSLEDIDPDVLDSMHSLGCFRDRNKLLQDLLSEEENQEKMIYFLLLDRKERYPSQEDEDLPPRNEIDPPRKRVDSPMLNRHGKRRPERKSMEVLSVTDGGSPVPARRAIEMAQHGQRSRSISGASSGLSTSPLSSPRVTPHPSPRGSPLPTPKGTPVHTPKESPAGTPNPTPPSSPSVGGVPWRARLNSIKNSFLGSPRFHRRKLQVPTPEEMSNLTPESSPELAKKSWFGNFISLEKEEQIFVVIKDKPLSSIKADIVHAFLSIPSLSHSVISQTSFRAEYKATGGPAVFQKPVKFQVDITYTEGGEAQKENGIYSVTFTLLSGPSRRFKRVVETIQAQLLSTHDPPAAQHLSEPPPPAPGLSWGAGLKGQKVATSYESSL

[4] = biological target: IR(h) (human) (UniProt P06213)
[5] = biological target: WNK2(h) (human) (UniProt Q9Y3S1)
[6] = biological target: IRAK1(h) (human) (UniProt P51617)
[7] = biological target: DYRK2(h) (human) (UniProt Q92630)
[8] = biological target: cKit(h) (human) (UniProt P10721)
[9] = biological target: T2, TAO3(h) (human) (UniProt Q9H2K8)
T2 sequence (looked up): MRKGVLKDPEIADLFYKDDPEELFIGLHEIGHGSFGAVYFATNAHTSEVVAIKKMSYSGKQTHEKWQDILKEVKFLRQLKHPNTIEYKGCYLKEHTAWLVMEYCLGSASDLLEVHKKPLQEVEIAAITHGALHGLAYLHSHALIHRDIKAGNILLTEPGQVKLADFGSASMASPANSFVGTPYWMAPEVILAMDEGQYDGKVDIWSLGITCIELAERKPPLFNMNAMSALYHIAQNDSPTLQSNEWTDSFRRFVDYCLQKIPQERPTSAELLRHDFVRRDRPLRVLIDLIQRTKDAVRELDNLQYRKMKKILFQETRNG

[10] = biological target: Met(D1246H)(h) (human) (UniProt P08581)
[11] = biological target: T3, NEK11(h) (human) (UniProt Q8NG66)
T3 sequence (looked up): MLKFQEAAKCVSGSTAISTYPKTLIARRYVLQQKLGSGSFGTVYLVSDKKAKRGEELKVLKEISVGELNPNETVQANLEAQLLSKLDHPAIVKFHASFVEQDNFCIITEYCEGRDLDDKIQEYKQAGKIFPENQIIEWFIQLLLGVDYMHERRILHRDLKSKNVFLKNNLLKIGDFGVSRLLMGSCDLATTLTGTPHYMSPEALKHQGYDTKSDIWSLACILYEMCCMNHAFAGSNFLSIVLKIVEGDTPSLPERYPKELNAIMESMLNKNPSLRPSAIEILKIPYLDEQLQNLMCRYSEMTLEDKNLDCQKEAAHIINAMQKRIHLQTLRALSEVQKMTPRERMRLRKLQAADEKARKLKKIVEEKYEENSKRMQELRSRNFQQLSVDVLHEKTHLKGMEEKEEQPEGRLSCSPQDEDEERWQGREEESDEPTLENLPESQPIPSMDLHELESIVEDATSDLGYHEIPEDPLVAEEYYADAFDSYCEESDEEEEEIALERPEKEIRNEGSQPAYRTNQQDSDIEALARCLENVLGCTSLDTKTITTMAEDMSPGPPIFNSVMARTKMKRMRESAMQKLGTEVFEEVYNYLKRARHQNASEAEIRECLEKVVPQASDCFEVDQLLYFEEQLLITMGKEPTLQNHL

[12] = biological target: PKCγ(h) (human) (UniProt P05129)
[13] = biological target: Abl(Y253F)(h) (human) (UniProt P00519)
[14] = biological target: T4, TAO1(h) (human) (UniProt Q7L7X3)
T4 sequence (looked up): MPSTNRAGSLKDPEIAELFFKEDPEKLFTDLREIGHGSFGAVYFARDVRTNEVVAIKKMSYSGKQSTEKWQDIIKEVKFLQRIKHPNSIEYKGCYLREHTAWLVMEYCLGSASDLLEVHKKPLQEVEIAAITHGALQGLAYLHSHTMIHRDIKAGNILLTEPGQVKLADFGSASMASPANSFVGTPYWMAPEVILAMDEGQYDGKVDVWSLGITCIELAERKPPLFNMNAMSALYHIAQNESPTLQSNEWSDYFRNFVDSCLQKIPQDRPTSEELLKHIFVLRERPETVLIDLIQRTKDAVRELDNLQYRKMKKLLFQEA

[15] = biological target: T5, CHK1(h) (human) (UniProt O14757)
T5 sequence (looked up): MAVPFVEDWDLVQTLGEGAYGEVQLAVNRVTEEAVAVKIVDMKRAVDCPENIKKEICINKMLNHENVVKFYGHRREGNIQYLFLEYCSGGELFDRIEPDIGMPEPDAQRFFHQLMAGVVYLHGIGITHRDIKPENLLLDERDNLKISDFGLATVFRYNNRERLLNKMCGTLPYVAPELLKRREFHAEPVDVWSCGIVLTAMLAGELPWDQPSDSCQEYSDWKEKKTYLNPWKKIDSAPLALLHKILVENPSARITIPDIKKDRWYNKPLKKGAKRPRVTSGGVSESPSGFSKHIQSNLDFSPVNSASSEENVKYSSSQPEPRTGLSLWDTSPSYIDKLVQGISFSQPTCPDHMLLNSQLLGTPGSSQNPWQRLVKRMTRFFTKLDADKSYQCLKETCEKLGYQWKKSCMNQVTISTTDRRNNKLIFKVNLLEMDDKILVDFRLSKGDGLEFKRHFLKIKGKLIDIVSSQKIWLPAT

Chain of IR(h) (human) (P06213 1005-1310 limits assumed): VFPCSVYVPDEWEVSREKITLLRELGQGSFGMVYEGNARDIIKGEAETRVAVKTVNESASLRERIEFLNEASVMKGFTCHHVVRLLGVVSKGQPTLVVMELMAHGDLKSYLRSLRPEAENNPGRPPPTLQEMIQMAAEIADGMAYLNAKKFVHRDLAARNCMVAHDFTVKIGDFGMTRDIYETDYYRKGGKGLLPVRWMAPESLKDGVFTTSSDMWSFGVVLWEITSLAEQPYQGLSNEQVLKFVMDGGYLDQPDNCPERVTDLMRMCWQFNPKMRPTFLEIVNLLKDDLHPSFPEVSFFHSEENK
Chain of cKit(h) (human) (P10721 544-976): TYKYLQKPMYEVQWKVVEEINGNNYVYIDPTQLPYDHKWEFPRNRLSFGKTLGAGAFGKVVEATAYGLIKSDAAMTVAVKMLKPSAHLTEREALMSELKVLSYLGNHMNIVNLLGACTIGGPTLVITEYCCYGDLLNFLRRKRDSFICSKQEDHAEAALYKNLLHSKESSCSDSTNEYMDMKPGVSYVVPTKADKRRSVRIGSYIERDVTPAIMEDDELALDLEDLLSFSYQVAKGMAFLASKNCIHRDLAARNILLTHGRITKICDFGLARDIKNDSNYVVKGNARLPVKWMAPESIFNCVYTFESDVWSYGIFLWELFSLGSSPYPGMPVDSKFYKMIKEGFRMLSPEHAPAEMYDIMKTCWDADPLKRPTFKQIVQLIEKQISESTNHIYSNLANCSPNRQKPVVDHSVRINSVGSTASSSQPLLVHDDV
Chain of Abl(Y253F)(h) (human) (P00519 27-1130 Y253F limits assumed): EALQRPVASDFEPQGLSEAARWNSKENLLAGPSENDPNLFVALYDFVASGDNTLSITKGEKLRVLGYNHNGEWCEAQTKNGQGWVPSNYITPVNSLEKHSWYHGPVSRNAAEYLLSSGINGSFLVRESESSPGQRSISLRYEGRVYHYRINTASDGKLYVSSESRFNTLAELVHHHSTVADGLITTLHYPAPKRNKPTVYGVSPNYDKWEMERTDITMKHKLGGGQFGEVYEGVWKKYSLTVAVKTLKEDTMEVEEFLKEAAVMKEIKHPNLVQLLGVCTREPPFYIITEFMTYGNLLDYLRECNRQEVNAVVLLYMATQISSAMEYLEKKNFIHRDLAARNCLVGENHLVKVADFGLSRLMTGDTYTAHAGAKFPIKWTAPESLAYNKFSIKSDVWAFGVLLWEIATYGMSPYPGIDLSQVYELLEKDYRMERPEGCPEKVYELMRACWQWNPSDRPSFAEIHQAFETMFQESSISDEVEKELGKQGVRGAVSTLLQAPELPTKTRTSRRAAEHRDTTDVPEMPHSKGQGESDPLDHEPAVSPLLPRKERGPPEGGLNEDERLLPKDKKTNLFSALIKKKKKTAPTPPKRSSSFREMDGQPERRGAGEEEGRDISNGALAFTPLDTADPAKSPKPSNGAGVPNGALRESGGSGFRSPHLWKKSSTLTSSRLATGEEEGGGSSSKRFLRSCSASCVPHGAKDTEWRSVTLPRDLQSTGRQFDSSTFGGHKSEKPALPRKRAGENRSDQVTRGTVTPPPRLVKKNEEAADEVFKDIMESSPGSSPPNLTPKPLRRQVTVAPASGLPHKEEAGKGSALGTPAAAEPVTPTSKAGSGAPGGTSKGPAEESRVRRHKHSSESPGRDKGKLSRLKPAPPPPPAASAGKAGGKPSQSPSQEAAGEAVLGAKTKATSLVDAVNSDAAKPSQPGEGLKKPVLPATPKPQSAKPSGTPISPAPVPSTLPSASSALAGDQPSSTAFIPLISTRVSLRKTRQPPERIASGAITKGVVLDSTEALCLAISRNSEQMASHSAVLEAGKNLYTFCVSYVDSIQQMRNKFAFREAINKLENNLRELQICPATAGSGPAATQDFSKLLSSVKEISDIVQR
Chain of Rsk4(h) (human) (Q9UK32 whole entry): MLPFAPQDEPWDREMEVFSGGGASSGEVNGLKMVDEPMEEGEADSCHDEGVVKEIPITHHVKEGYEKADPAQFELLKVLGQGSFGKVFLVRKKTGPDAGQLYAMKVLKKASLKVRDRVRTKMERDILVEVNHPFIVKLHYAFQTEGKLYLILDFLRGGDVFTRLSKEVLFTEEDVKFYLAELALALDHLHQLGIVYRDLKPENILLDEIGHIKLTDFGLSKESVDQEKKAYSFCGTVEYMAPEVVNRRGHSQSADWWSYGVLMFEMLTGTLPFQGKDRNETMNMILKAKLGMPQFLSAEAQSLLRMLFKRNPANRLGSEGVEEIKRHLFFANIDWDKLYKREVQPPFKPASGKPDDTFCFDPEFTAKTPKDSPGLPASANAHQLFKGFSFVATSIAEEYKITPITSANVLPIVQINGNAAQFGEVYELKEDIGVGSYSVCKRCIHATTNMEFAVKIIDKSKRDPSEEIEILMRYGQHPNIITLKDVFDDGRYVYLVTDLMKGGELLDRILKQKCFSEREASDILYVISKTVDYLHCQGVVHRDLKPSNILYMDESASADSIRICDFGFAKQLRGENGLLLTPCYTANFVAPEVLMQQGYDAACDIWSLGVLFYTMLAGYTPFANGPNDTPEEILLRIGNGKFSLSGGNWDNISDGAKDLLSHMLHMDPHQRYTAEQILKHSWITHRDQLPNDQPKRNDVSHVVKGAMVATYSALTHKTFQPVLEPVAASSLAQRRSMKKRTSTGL

Row | Substance | % activity at 100 µM [1] | % activity at 100 µM [2] | % activity at 100 µM [3] | % activity at 100 µM [4] | % activity at 100 µM [5] | % activity at 100 µM [6] | % activity at 100 µM [7] | % activity at 100 µM [8] | % activity at 100 µM [9] | % activity at 100 µM [10] | % activity at 100 µM [11] | % activity at 100 µM [12] | % activity at 100 µM [13] | % activity at 100 µM [14] | % activity at 100 µM [15]
1 | MMI-0300 (peptide) | 91% | 90% | 83% | 96% | 64% | 95% | 155% | 53% | 77% | 125% | 53% | 89% | 86% | 82% | 91%
2 | MMI-0400 (peptide) | 235% | 91% | 86% | 85% | 54% | 93% | 195% | 43% | 67% | 68% | 33% | 79% | 78% | 73% | 87%
3 | MMI-0500 (peptide) | 6% | 29% | 84% | 95% | 8% | 5% | 127% | 45% | 12% | 150% | 2% | 6% | 29% | 24% | 65%

Reference: patent US20150064134A1
